In patent publication US20140011978A1 (EPFL TTO, published 2014):

Key:
Test in all cases: ELISA: growth factor coated, Fg fragment in solution, A450 (methods analogous to Example 3)
[1] = target: T1, TGF-β3 (Natural form is a disulfide-linked homodimer; one protomer is given.)
T1 chain: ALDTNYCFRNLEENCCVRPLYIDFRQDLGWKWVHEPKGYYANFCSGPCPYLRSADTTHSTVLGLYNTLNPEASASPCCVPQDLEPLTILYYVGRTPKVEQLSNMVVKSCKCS
Method: (§1) ELISA plates were coated with cytokines or BSA and further incubated with TNC III1-5 to analyze binding of TNC III1-5 to a wide variety of cytokines. […] A large amount of heparin (4 μM) impaired binding of TNC III1-5 to these cytokines. Results are depicted in FIG. 3. Method: 50 nM of cytokine was coated for (1 hr, 37° C.). After blocking with 2% BSA (1 hr, RT). 100 nM TNC III1-5 was applied in PBST (0.05% tween, 0.1% bovine serum albumin (BSA)) (1 hr, RT). TNC III1-5 was detected with horseradish peroxidase (HRP)-anti-HIS in PBST (1 hr, RT) and developed with 3,3′,5,5′-tetramethylbenzidine (TMB), a soluble colorimetric HRP […]. Addition of sulfuric acid stop solution changes the color to yellow, enabling accurate measurement of the intensity at 450 nm using a spectrophotometer or plate reader. […] Heparin (4 μM) was added to TNC III1-5 to test the effect of blocking the heparin binding site of TNC III1-5, which has been defined as domain TNC III5 (Weber, Zimmermann, et al., 1995).
(§2) ELISA plates were coated with cytokines or BSA and further incubated with Fg β15-66 to analyze binding of […] to a wide variety of cytokines. […] Results are depicted in FIG. 4. Method: The methods were analogous to those used in Example 3.

[2] = target: VEGF-A165 (UniProt P15692-4 27-191)
Method: as §1, §2

[3] = target: T2, TGF-β2 (UniProt P61812 303-414)
T2 sequence (looked up): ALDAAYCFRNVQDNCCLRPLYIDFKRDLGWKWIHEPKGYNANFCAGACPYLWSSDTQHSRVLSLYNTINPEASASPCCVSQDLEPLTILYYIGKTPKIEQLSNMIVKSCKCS
Method: as §1, §2

[4] = target: T3, FGF-10 (UniProt O15520 38-208)
T3 sequence (looked up): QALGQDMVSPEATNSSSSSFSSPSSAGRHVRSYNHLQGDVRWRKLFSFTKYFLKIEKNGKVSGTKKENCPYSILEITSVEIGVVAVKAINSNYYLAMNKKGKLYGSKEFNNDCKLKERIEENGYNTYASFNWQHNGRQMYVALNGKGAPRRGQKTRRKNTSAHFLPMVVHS
Method: as §1, §2

[5] = target: PDGF-DD (UniProt Q9GZP0 250-370)
Method: as §1, §2

[6] = target: T4, FGF-7 (UniProt P21781 32-194)
T4 sequence (looked up): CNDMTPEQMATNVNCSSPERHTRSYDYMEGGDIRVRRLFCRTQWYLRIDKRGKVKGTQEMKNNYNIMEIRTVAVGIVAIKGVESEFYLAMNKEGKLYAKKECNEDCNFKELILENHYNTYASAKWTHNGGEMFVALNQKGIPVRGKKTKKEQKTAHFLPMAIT
Method: as §1, §2

[7] = target: T5, BDNF (UniProt P23560 129-247)
T5 construct: also called brain-derived neurotrophic factor
T5 sequence (looked up): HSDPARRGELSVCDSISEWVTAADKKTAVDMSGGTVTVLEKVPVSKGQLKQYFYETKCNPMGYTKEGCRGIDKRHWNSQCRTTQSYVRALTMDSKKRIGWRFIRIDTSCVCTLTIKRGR
Method: as §1, §2

[8] = target: T6, PDGF-BB (UniProt P01127 82-190)
T6 construct: The name implies a homodimer of B chains
Method: as §1, §2

[9] = target: BMP-2 (UniProt P12643 283-396)
Method: as §1, §2

[10] = target: EGF
Method: as §1, §2

[11] = target: T7, FGF-6 (UniProt P10767 38-208, limits assumed)
T7 sequence (looked up): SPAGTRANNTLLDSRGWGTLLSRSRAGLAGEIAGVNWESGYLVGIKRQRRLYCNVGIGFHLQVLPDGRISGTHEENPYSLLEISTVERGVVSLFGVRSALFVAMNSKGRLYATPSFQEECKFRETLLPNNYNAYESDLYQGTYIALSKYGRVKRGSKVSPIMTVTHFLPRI
Method: as §1, §2

[12] = target: IGF-BP3 (UniProt P17936 28-291)
Method: as §1, §2

[13] = target: T8, NT-3 (UniProt P20783 139-257)
T8 sequence (looked up): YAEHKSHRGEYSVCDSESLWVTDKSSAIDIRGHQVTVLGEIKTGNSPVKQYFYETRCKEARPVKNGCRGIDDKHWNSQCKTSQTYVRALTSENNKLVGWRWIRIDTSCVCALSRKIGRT
Method: as §1, §2

Measured: binding result

Sequence of IGF-BP3 (P17936 28-291 limits assumed): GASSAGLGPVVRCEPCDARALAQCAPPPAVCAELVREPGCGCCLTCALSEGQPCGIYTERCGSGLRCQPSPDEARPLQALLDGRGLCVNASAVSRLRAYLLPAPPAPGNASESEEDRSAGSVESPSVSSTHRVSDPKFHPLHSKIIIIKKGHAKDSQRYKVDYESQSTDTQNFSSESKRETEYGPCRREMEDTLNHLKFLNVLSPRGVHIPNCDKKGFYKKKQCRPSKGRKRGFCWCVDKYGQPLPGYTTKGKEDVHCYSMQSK
Sequence of PDGF-DD (Q9GZP0 250-370): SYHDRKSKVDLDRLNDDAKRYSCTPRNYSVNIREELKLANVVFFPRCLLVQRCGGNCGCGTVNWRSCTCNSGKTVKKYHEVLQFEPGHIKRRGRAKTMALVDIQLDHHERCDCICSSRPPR
T6 sequence (P01127 82-190 limits assumed): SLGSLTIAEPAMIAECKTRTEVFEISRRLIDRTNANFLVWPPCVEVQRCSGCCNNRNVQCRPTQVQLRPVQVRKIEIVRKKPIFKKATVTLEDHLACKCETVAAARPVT
Sequence of BMP-2 (P12643 283-396 limits assumed): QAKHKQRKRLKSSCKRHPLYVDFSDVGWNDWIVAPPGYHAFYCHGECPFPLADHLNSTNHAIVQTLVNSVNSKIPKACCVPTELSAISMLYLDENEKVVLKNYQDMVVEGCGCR
Sequence of VEGF-A165 (P15692 other isoform, or with tags, fused parts or gaps limits assumed): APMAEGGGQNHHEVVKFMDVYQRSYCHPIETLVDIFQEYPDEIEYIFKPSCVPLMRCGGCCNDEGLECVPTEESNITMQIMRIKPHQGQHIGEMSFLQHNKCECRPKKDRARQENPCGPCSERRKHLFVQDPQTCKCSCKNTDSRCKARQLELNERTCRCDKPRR

B1: Fg β15-66 (other)
chain: GSNQEQVSPLGHRPLDKKREEAPSLRPAPPPISGGGYRARPAKAAATQKKVERKAPDAGGCGHHHHHH
notes: Made as a GST fusion; GST was cleaved off; also called TG-Fg β15-66; fibrinogen β15-66 domain
no binding: [1] | [10] | [11]
binds: all other assays above
